Results on two molecules are retold here after paper PMC3715890.

In series [1] the target is T1, HIF-1α 1-350;HIF-1β (ARNT) 1-474 (human?;human?, UniProt Q16665;P27540 1-350;1-474, |). The series can be described thus: competition; unlabelled DNA titrated against labelled probe N1 (EMSA); EMSA: Tris-HCl (concentration and pH not in material), 50 mM KCl, 50 mM NaCl, 5 mM DTT, 1 mM MgCl2, 1 mM EDTA, 10% glycerol, 5 µg BSA, 25 ng poly dI-dC; 30 min. For orientation: In EMSA bound probe runs differently from free probe, usually more slowly.

The target of series [2] is T1, HIF-1α 1-350;HIF-1β (ARNT) 1-474. The series can be described thus: EMSA; EMSA: Tris-HCl (concentration and pH not in material), 50 mM KCl, 50 mM NaCl, 5 mM DTT, 1 mM MgCl2, 1 mM EDTA, 10% glycerol, 5 µg BSA, 25 ng poly dI-dC; 30 min.
Series [3] has as its target HIF-2α (EPAS1) 1-351;HIF-1β (ARNT) 1-474 (human?;human?, UniProt Q99814;P27540 1-351;1-474, |). Described as above.

B1: unlabelled HRE competitor DNA (dsDNA)
DNA 1: GGCTGGGCCTACGTGCTGTCTCACACAGCC
DNA 2: GGCTGTGTGAGACAGCACGTAGGCCCAGCC
B1: the binding result in series [1] is on record as “binds”.

B2: EMSA HRE probe (human EPO enhancer) (dsDNA)
DNA 1: B1 DNA 1
DNA 2: B1 DNA 2
As to B2, the binding result in series [2] and in series [3] was “binds” throughout.
